Laboratory results reported in patent EP1298214A2, “Plant thioesterases” (Calgene LLC, priority 1990, dated 1991).

How the values were obtained:
[1] = molecular target: T1, Bay C12-preferring acyl-ACP thioesterase (Umbellularia californica, UniProt Q41635); assay: Bay thioesterase substrate specificity as a function of chain length, ammonium sulfate fraction; format: biochemical; set-up: The cotyledons from such seeds are dissected from the other seed parts and stored frozen at -70°; This comprises the source tissue for enzyme extraction; from tissue; host or cells: immature seed cotyledons of Umbellularia californica; details: C8-ACP activity set to 1.0; label is acyl chain length of the acyl-ACP
T1 sequence (Q41635 84-382): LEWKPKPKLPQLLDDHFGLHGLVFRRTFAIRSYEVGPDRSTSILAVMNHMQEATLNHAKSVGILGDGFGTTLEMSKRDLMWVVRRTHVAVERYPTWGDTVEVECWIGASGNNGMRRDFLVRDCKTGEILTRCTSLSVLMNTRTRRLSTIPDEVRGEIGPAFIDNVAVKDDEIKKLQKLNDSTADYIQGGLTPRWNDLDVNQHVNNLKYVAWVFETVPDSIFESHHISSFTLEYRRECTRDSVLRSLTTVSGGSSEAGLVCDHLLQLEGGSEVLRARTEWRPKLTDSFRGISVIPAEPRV
Protocol: To assay for C12 thioesterase activity the following mixture is incubated at 30° for 30 min: "buffer" comprising 7mM KH2PO4-KOH pH 8, 20% v/v glycerol, 1mM dithiothreitol (DTT), 0.1% v/v Triton X100; sample to be tested for activity in the same or similar buffer as the "extraction buffer" described in Example 2; […] and final lauroyl-ACP concentration of 0.5µM. Lauroyl-ACP substrate is prepared according to the method of Rock et al (Methods in Enzymology (1981) 72:397-403), using ACP prepared from Escherichia coli by the method of Rock and Cronan (Methods in Enzymology (1981) 71:341-351). The laurate is radiolabeled in the carboxylate group at a specific radioactivity of 50-60µCi/µmol.
The reaction is stopped by adding 0.5ml cold (0°) 10% v/v acetic acid. The fatty acid product of the hydrolytic enzyme action is extracted away from the unhydrolyzed substrate by adding 1ml diethyl ether and mixing vigorously. After settling for a few minutes the upper ether layer is transferred to 5ml scintillation fluid for determination of radioactivity by liquid scintillation spectrometry. Additional ether extractions may be performed to recover remaining traces of the reaction product for more accurate quantitation of the enzyme activity if desired. The amount of ether-extracted radioactivity is a direct measure of C12-preferring acyl-ACP thioesterase activity, provided the amount of enzyme is not sufficient to hydrolyze more than about 25% of the substrate. With greater activity than this the relationship between radioactivity in the ether layer and the quantity of enzyme becomes markedly nonlinear. The enzyme preparation must then be diluted appropriately to bring the activity into the linear range of the assay.
The crude extract is subjected to ammonium sulfate fractionation as follows. Sufficient solid ammonium sulfate is gradually added with stirring over 30 min to achieve 70% saturation. The preparation is then stirred for a further 30 min. After centrifuging as described above, the pelleted material is resuspended in extraction buffer (2ml/g original tissue weight) and stirred for 10 min until dissolved. Ammonium sulfate is then added as before, but this time only sufficient to achieve 50% saturation. After centrifuging as before, the supernatant fraction is discarded. The pelleted material, which contains the C12-preferring acyl-ACP thioesterase, may be frozen by immersion in liquid nitrogen and then stored at -70° at this stage if desired. The resulting material is referred to as the "ammonium sulfate fraction." Very little of the C12-preferring acyl-ACP thioesterase activity is lost if the pellet is frozen very rapidly. […]

[2] = test system: material which fails to bind the ACP column (Lauroyl-CoA hydrolysis activity); assay: Substrate hydrolysis (ACP versus CoA) by peak unbound fraction of the ACP column; format: biochemical, Umbellularia californica; details: Flow-through (nonbinding) fraction; cpm of ether-extractable product
Protocol: To assay for C12 thioesterase activity the following mixture is incubated at 30° for 30 min: "buffer" comprising 7mM KH2PO4-KOH pH 8, 20% v/v glycerol, 1mM dithiothreitol (DTT), 0.1% v/v Triton X100; sample to be tested for activity in the same or similar buffer as the "extraction buffer" described in Example 2; and 5µl of ^14C-radiolabeled lauroyl-ACP substrate for a total volume of 100µl and final lauroyl-ACP concentration of 0.5µM. Lauroyl-ACP substrate is prepared according to the method of Rock et al (Methods in Enzymology (1981) 72:397-403), using ACP prepared from Escherichia coli by the method of Rock and Cronan (Methods in Enzymology (1981) 71:341-351). The laurate is radiolabeled in the carboxylate group at a specific radioactivity of 50-60µCi/µmol.
The reaction is stopped by adding 0.5ml cold (0°) 10% v/v acetic acid. […] After settling for a few minutes the upper ether layer is transferred to 5ml scintillation fluid for determination of radioactivity by liquid scintillation spectrometry. Additional ether extractions may be performed to recover remaining traces of the reaction product for more accurate quantitation of the enzyme activity if desired. The amount of ether-extracted radioactivity is a direct measure of C12-preferring acyl-ACP thioesterase activity, provided the amount of enzyme is not sufficient to hydrolyze more than about 25% of the substrate. […]

## 14:0-ACP
[1]
  Relative Thioesterase Activity: 4.0

## 16:0-ACP
[1]
  Relative Thioesterase Activity: 4.7

## decanoyl-ACP [10:0-ACP]
[1]
  Relative Thioesterase Activity: 2.7

## lauroyl-ACP [12:0-ACP]
[2]
  Activity on Substrate: 300 cpm
[1]
  Relative Thioesterase Activity: 24.0
